Where no end group is shown, it is not given here. [ ]: non-standard residue; d: D form. pY = N[C@@H](Cc1ccc(OP(=O)(O)O)cc1)C(=O)O
Biological target: T1, EGFR pY1068 phosphododecapeptide dodecapeptide surrounding Y1068 (Homo sapiens, UniProt P00533)
T1 chain: LPVPE[pY]INQSVP
Assay: microscale thermophoresis

B1: STAT3 127-722 (protein)
chain: GQANHPTAAVVTEKQQMLEQHLQDVRKRVQDLEQKMKVVENLQDDFDFNYKTLKSQGDMQDLNGNNQSVTRQKMQQLEQMLTALDQMRRSIVSELAGLLSAMEYVQKTLTDEELADWKRRQQIACIGGPPNICLDRLENWITSLAESQLQTRQQIKKLEELQQKVSYKGDPIVQHRPMLEERIVELFRNLMKSAFVVERQPCMPMHPDRPLVIKTGVQFTTKVRLLVKFPELNYQLKIKVCIDKDSGDVAALRGSRKFNILGTNTKVMNMEESNNGSLSAEFKHLTLREQRCGNGGRANCDASLIVTEELHLITFETEVYHQGLKIDLETHSLPVVVISNICQMPNAWASILWYNMLTNNPKNVNFFTKPPIGTWDQVAEVLSWQFSSTTKRGLSIEQLTTLAEKLLGPGVNYSGCQITWAKFCKENMAGKGFSFWVWLDNIIDLVKKYILALWNEGYIMGFISKERERAILSTKPPGTFLLRFSESSKEGGVTFTWVEKDISGKTQIQSVEPYTKQQLNNMSFAEIIMGYKIMDATNILVSPLVYLYPDIPKEEAFGKYCRPESQEHPEADPGSAAPYLKTKFICVTPTTCSNTI
B1 gave a Kd of 1.1 nM.

Reference: publication PMC5041982 (2016)
